Experimental data taken from paper PMC3602351.

Target: human ALDH2 T244A substituted enzyme (human) (UniProt P05091)
Test: crystal structure

stoichiometry N: 4
Substance: human ALDH2 T244A substituted enzyme (from UniProt P05091 18-517)
